Measurements reported in patent publication US12679878B2, “CRF2 receptor agonists and their use in therapy” (SANOFI, priority 2020, dated 2026).
Starred links: 1 amine or outer side, 2 acyl side, 3 side chain; linkers in the order of their positions; H or OH if unused. Non-standard residues stand in square brackets, D forms with d. Groups on a side chain read outwards from the residue. No end group written: not given here. *: point of attachment. C18 diacid = O=C(O)CCCCCCCCCCCCCCCCC(=O)*; γGlu = O=C(O)[C@H](CCC(=O)[*:2])N[*:1]; AEEA = NCCOCCOCC(=O)O; Aib = CC(C)(N)C(=O)O

B1: peptide of SEQ ID NO: 72 (peptide)
peptide: IVLSLDVPIKLK([AEEA-AEEA-γGlu-C18 diacid])QILLEQERQKKQRQQAETN[Aib]QILAQV-NH2
modifications: N-terminus assumed
SMILES: CC[C@H](C)[C@H](N)C(=O)N[C@H](C(=O)N[C@@H](CC(C)C)C(=O)N[C@@H](CO)C(=O)N[C@@H](CC(C)C)C(=O)N[C@@H](CC(=O)O)C(=O)N[C@H](C(=O)N1CCC[C@H]1C(=O)N[C@H](C(=O)N[C@@H](CCCCN)C(=O)N[C@@H](CC(C)C)C(=O)N[C@@H](CCCCNC(=O)COCCOCCNC(=O)COCCOCCNC(=O)CC[C@H](NC(=O)CCCCCCCCCCCCCCCCC(=O)O)C(=O)O)C(=O)N[C@@H](CCC(N)=O)C(=O)N[C@H](C(=O)N[C@@H](CC(C)C)C(=O)N[C@@H](CC(C)C)C(=O)N[C@@H](CCC(=O)O)C(=O)N[C@@H](CCC(N)=O)C(=O)N[C@@H](CCC(=O)O)C(=O)N[C@@H](CCCNC(=N)N)C(=O)N[C@@H](CCC(N)=O)C(=O)N[C@@H](CCCCN)C(=O)N[C@@H](CCCCN)C(=O)N[C@@H](CCC(N)=O)C(=O)N[C@@H](CCCNC(=N)N)C(=O)N[C@@H](CCC(N)=O)C(=O)N[C@@H](CCC(N)=O)C(=O)N[C@@H](C)C(=O)N[C@@H](CCC(=O)O)C(=O)N[C@H](C(=O)N[C@@H](CC(N)=O)C(=O)NC(C)(C)C(=O)N[C@@H](CCC(N)=O)C(=O)N[C@H](C(=O)N[C@@H](CC(C)C)C(=O)N[C@@H](C)C(=O)N[C@@H](CCC(N)=O)C(=O)N[C@H](C(N)=O)C(C)C)[C@@H](C)CC)[C@@H](C)O)[C@@H](C)CC)[C@@H](C)CC)C(C)C)C(C)C
B2: peptide of SEQ ID NO: 75 (peptide)
peptide: IVLSLDVPIKLK([AEEA-AEEA-γGlu-C18 diacid])QILLKQERQKKQRQQAETN[Aib]QILAQV-NH2
modifications: N-terminus assumed
SMILES: CC[C@H](C)[C@H](N)C(=O)N[C@H](C(=O)N[C@@H](CC(C)C)C(=O)N[C@@H](CO)C(=O)N[C@@H](CC(C)C)C(=O)N[C@@H](CC(=O)O)C(=O)N[C@H](C(=O)N1CCC[C@H]1C(=O)N[C@H](C(=O)N[C@@H](CCCCN)C(=O)N[C@@H](CC(C)C)C(=O)N[C@@H](CCCCNC(=O)COCCOCCNC(=O)COCCOCCNC(=O)CC[C@H](NC(=O)CCCCCCCCCCCCCCCCC(=O)O)C(=O)O)C(=O)N[C@@H](CCC(N)=O)C(=O)N[C@H](C(=O)N[C@@H](CC(C)C)C(=O)N[C@@H](CC(C)C)C(=O)N[C@@H](CCCCN)C(=O)N[C@@H](CCC(N)=O)C(=O)N[C@@H](CCC(=O)O)C(=O)N[C@@H](CCCNC(=N)N)C(=O)N[C@@H](CCC(N)=O)C(=O)N[C@@H](CCCCN)C(=O)N[C@@H](CCCCN)C(=O)N[C@@H](CCC(N)=O)C(=O)N[C@@H](CCCNC(=N)N)C(=O)N[C@@H](CCC(N)=O)C(=O)N[C@@H](CCC(N)=O)C(=O)N[C@@H](C)C(=O)N[C@@H](CCC(=O)O)C(=O)N[C@H](C(=O)N[C@@H](CC(N)=O)C(=O)NC(C)(C)C(=O)N[C@@H](CCC(N)=O)C(=O)N[C@H](C(=O)N[C@@H](CC(C)C)C(=O)N[C@@H](C)C(=O)N[C@@H](CCC(N)=O)C(=O)N[C@H](C(N)=O)C(C)C)[C@@H](C)CC)[C@@H](C)O)[C@@H](C)CC)[C@@H](C)CC)C(C)C)C(C)C
B3: peptide of SEQ ID NO: 70 (peptide)
peptide: IVLSLDVPIKLK([AEEA-AEEA-γGlu-C18 diacid])QILLEQERQKKQREQAETN[Aib]QILAQV-NH2
modifications: N-terminus assumed
SMILES: CC[C@H](C)[C@H](N)C(=O)N[C@H](C(=O)N[C@@H](CC(C)C)C(=O)N[C@@H](CO)C(=O)N[C@@H](CC(C)C)C(=O)N[C@@H](CC(=O)O)C(=O)N[C@H](C(=O)N1CCC[C@H]1C(=O)N[C@H](C(=O)N[C@@H](CCCCN)C(=O)N[C@@H](CC(C)C)C(=O)N[C@@H](CCCCNC(=O)COCCOCCNC(=O)COCCOCCNC(=O)CC[C@H](NC(=O)CCCCCCCCCCCCCCCCC(=O)O)C(=O)O)C(=O)N[C@@H](CCC(N)=O)C(=O)N[C@H](C(=O)N[C@@H](CC(C)C)C(=O)N[C@@H](CC(C)C)C(=O)N[C@@H](CCC(=O)O)C(=O)N[C@@H](CCC(N)=O)C(=O)N[C@@H](CCC(=O)O)C(=O)N[C@@H](CCCNC(=N)N)C(=O)N[C@@H](CCC(N)=O)C(=O)N[C@@H](CCCCN)C(=O)N[C@@H](CCCCN)C(=O)N[C@@H](CCC(N)=O)C(=O)N[C@@H](CCCNC(=N)N)C(=O)N[C@@H](CCC(=O)O)C(=O)N[C@@H](CCC(N)=O)C(=O)N[C@@H](C)C(=O)N[C@@H](CCC(=O)O)C(=O)N[C@H](C(=O)N[C@@H](CC(N)=O)C(=O)NC(C)(C)C(=O)N[C@@H](CCC(N)=O)C(=O)N[C@H](C(=O)N[C@@H](CC(C)C)C(=O)N[C@@H](C)C(=O)N[C@@H](CCC(N)=O)C(=O)N[C@H](C(N)=O)C(C)C)[C@@H](C)CC)[C@@H](C)O)[C@@H](C)CC)[C@@H](C)CC)C(C)C)C(C)C
B4: peptide of SEQ ID NO: 77 (peptide)
peptide: IVLSLDVPIKLK([AEEA-AEEA-γGlu-C18 diacid])QILLKQERQKKQRQKAETNKQILAQV-NH2
modifications: N-terminus assumed
SMILES: CC[C@H](C)[C@H](N)C(=O)N[C@H](C(=O)N[C@@H](CC(C)C)C(=O)N[C@@H](CO)C(=O)N[C@@H](CC(C)C)C(=O)N[C@@H](CC(=O)O)C(=O)N[C@H](C(=O)N1CCC[C@H]1C(=O)N[C@H](C(=O)N[C@@H](CCCCN)C(=O)N[C@@H](CC(C)C)C(=O)N[C@@H](CCCCNC(=O)COCCOCCNC(=O)COCCOCCNC(=O)CC[C@H](NC(=O)CCCCCCCCCCCCCCCCC(=O)O)C(=O)O)C(=O)N[C@@H](CCC(N)=O)C(=O)N[C@H](C(=O)N[C@@H](CC(C)C)C(=O)N[C@@H](CC(C)C)C(=O)N[C@@H](CCCCN)C(=O)N[C@@H](CCC(N)=O)C(=O)N[C@@H](CCC(=O)O)C(=O)N[C@@H](CCCNC(=N)N)C(=O)N[C@@H](CCC(N)=O)C(=O)N[C@@H](CCCCN)C(=O)N[C@@H](CCCCN)C(=O)N[C@@H](CCC(N)=O)C(=O)N[C@@H](CCCNC(=N)N)C(=O)N[C@@H](CCC(N)=O)C(=O)N[C@@H](CCCCN)C(=O)N[C@@H](C)C(=O)N[C@@H](CCC(=O)O)C(=O)N[C@H](C(=O)N[C@@H](CC(N)=O)C(=O)N[C@@H](CCCCN)C(=O)N[C@@H](CCC(N)=O)C(=O)N[C@H](C(=O)N[C@@H](CC(C)C)C(=O)N[C@@H](C)C(=O)N[C@@H](CCC(N)=O)C(=O)N[C@H](C(N)=O)C(C)C)[C@@H](C)CC)[C@@H](C)O)[C@@H](C)CC)[C@@H](C)CC)C(C)C)C(C)C
B5: peptide of SEQ ID NO: 79 (peptide)
peptide: IVLSLDVPIKLK([AEEA-AEEA-γGlu-C18 diacid])QILLEQEKQK[Aib]QREQAETNKQILAQV-NH2
modifications: N-terminus assumed
SMILES: CC[C@H](C)[C@H](N)C(=O)N[C@H](C(=O)N[C@@H](CC(C)C)C(=O)N[C@@H](CO)C(=O)N[C@@H](CC(C)C)C(=O)N[C@@H](CC(=O)O)C(=O)N[C@H](C(=O)N1CCC[C@H]1C(=O)N[C@H](C(=O)N[C@@H](CCCCN)C(=O)N[C@@H](CC(C)C)C(=O)N[C@@H](CCCCNC(=O)COCCOCCNC(=O)COCCOCCNC(=O)CC[C@H](NC(=O)CCCCCCCCCCCCCCCCC(=O)O)C(=O)O)C(=O)N[C@@H](CCC(N)=O)C(=O)N[C@H](C(=O)N[C@@H](CC(C)C)C(=O)N[C@@H](CC(C)C)C(=O)N[C@@H](CCC(=O)O)C(=O)N[C@@H](CCC(N)=O)C(=O)N[C@@H](CCC(=O)O)C(=O)N[C@@H](CCCCN)C(=O)N[C@@H](CCC(N)=O)C(=O)N[C@@H](CCCCN)C(=O)NC(C)(C)C(=O)N[C@@H](CCC(N)=O)C(=O)N[C@@H](CCCNC(=N)N)C(=O)N[C@@H](CCC(=O)O)C(=O)N[C@@H](CCC(N)=O)C(=O)N[C@@H](C)C(=O)N[C@@H](CCC(=O)O)C(=O)N[C@H](C(=O)N[C@@H](CC(N)=O)C(=O)N[C@@H](CCCCN)C(=O)N[C@@H](CCC(N)=O)C(=O)N[C@H](C(=O)N[C@@H](CC(C)C)C(=O)N[C@@H](C)C(=O)N[C@@H](CCC(N)=O)C(=O)N[C@H](C(N)=O)C(C)C)[C@@H](C)CC)[C@@H](C)O)[C@@H](C)CC)[C@@H](C)CC)C(C)C)C(C)C

How the values were obtained:
rat CRF2R α receptor = rat CRF2R α receptor (rat, UniProt P47866 20-411); experiment: cell-based or functional assay
[1] = target: T1, anti-target CRF1R receptor (UniProt P34998 24-415, limits assumed); experiment: cell-based or functional assay
T1 sequence (looked up): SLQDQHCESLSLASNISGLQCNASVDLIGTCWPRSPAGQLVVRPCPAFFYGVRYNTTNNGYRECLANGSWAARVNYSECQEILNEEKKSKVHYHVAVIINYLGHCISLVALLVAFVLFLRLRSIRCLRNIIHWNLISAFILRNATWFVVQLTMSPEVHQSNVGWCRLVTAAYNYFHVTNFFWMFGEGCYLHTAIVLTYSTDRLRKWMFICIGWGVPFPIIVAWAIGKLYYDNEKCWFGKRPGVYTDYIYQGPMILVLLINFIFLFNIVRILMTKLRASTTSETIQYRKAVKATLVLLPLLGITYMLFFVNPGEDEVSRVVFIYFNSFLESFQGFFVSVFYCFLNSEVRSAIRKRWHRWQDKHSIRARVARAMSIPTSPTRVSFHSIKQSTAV

Sequence of rat CRF2R α receptor (P47866 20-411): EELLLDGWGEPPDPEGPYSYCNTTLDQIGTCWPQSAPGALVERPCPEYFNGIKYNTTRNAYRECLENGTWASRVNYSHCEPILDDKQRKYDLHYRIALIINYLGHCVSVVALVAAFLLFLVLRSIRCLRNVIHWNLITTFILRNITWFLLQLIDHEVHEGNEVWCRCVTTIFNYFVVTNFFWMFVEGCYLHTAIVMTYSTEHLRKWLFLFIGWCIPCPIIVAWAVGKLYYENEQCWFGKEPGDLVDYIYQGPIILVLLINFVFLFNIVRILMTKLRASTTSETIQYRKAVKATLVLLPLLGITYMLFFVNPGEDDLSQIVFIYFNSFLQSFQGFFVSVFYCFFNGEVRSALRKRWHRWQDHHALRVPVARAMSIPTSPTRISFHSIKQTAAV

Row | Binder | EC50 [nM], 0% HSA (cAMP, A7R5 cells) (rat CRF2R α receptor) [nM] | EC50[nM] 0% HSA (cAMP, CRF1R-overexpression CHO cells) [1] [nM] | Emax (%) (cAMP, CRF1R-overexpression CHO cells) [1]
1 | B1 | 4.31 | > 1000 | 2.58
2 | B2 | 1.71 | > 1000 | 2.7
3 | B3 | 8.72 | > 1000 | 3.03
4 | B4 | 3.26 | > 1000 | 1.56
5 | B5 | 3.99 | > 1000 | 8.74
